Reference: publication PMC9841335, “Structure of a bacterial ribonucleoprotein complex central to the control of cell envelope biogenesis” (The EMBO Journal, 2022)

B1: RNase E-NTD (residues 1-598, Δ568–582, D346C) (domain or fragment)
chain: not shown
notes: also called mutant RNase E‐NTD; RNase E catalytic domain; source: E. coli BL21(DE3), pET16 vector, purified (IMAC, butyl Sepharose, Superdex 200 SEC)

Experiments:
[1] = target: the molecule itself; test: cryo-EM structure; RNase E-NTD (D346C), full-length RapZ and full-length GlmZ RNA at 5:25:10 μM in 25 mM HEPES pH 7.5, 300 KCl, 1 mM MgCl2, cross-linked with 0.01% glutaraldehyde, Superose 6 SEC, graphene oxide-coated grids; binary RapZ:GlmZ and ternary classes from one dataset
[2] = target: B1; test: as above; conditions: both partners purified
[3] = target: T1, RNase E-NTD (wild type, BACTH fusion) (E. coli, UniProt P21513 1-529); test: two-hybrid; adenylate cyclase-based bacterial two-hybrid (BACTH) in E. coli BTH101, pKT25 (T25-RapZ) and pUT18C-type plasmids, LB with 1 mM IPTG, β-galactosidase activity; endogenous GlmZ present in the cell; conditions: partners not purified
T1 construct: RNase E, E. coli, N-terminal catalytic domain (NTD); The text calls the two-hybrid partner 'RNase E' and its variants 'RNase E‐NTD variants'; also called RNase E wild type; source: bacterial two-hybrid fusion (pUT18C-type plasmid) in E. coli BTH101

Binder	stoichiometry N [1]	stoichiometry N [2]	fold decrease of the BACTH signal against wild-type RapZ [3] [fold]
B1	4	–	–
RapZ (full-length, purified recombinant) (natural protein, E. coli, UniProt P0A894 1-284, looked up, The Strep-tag is cleavable by TEV protease; Construct and procedure follow Gonzalez et al, 2017; In all complexes with RNase E-NTD the sRNA GlmZ was present; also called RapZ tetramer; full‐length RapZ; source: E. coli Rosetta, plasmid pMCSG7, purified (Strep Trap HP, Superdex 200 SEC)) MVLMIVSGRSGSGKSVALRALEDMGFYCVDNLPVVLLPDLARTLADREISAAVSIDVRNMPESPEIFEQAMSNLPDAFSPQLLFLDADRNTLIRRYSDTRRLHPLSSKNLSLESAIDKESDLLEPLRSRADLIVDTSEMSVHELAEMLRTRLLGKRERELTMVFESFGFKHGIPIDADYVFDVRFLPNPHWDPKLRPMTGLDKPVAAFLDRHTEVHNFIYQTRSYLELWLPMLETNNRSYLTVAIGCTGGKHRSVYIAEQLADYFRSRGKNVQSRHRTLEKRKP	4	2 RapZ tetramers per RNase E-NTD tetramer	–
T25-RapZ 4 substitutions (T161A, Y240A, N271A, Q273A; BACTH fusion) (natural protein, E. coli, UniProt P0A894 1-284, looked up, RapZ, E. coli, with alanine substitutions of Q273, N271, Y240 and T161; source: bacterial two-hybrid fusion (pKT25 plasmid) in E. coli BTH101) MVLMIVSGRSGSGKSVALRALEDMGFYCVDNLPVVLLPDLARTLADREISAAVSIDVRNMPESPEIFEQAMSNLPDAFSPQLLFLDADRNTLIRRYSDTRRLHPLSSKNLSLESAIDKESDLLEPLRSRADLIVDTSEMSVHELAEMLRTRLLGKRERELAMVFESFGFKHGIPIDADYVFDVRFLPNPHWDPKLRPMTGLDKPVAAFLDRHTEVHNFIYQTRSYLELWLPMLETNNRSALTVAIGCTGGKHRSVYIAEQLADYFRSRGKAVASRHRTLEKRKP	–	–	2
